The target in this series is T1, TALE1-NK repressor (Xanthomonas (engineered), UniProt P14727 SEQ:1-983).
T1 chain: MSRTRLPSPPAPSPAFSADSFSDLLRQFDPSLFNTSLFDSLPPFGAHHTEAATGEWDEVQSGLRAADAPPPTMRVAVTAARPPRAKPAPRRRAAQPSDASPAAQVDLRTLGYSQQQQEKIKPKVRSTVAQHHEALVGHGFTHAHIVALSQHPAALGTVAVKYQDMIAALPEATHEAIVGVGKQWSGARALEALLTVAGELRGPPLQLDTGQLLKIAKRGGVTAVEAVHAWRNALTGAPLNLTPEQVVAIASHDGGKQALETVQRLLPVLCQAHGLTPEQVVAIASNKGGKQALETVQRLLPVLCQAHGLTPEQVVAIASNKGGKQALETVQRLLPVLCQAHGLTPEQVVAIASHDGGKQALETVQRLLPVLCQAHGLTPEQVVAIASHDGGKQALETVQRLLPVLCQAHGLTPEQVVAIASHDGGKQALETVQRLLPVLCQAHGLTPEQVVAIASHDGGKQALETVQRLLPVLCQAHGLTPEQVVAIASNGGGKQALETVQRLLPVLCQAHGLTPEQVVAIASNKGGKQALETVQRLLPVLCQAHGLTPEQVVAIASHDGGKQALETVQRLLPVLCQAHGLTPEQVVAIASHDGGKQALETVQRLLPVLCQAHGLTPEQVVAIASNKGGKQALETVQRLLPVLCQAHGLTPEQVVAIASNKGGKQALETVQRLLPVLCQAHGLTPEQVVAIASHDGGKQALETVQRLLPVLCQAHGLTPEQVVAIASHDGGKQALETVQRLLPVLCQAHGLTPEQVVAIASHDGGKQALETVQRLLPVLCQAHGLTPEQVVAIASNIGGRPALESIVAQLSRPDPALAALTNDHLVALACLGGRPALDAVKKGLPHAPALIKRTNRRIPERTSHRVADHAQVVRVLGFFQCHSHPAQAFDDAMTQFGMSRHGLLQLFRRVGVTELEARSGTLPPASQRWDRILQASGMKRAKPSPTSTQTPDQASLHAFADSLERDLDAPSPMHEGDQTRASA
Briefly: cell_activity; endogenous CACNA1C mRNA. The note with it: tags: SID.

B1: CACNA1C site 1 (dsDNA)
DNA 1: TCGGCCCCTGCCGGCCCA
DNA 2: TGGGCCGGCAGGGGCCGA
With B1, the activity is about 2 fold repression.

The values are drawn from patent US20140271602, “NUCLEOTIDE-SPECIFIC RECOGNITION SEQUENCES FOR DESIGNER TAL EFFECTORS” (THE BROAD INSTITUTE INC., published 2014).
